Measured values reported in patent US20260356969 (published 2026).
Like-named read-outs stand apart in the source and are kept apart here.

Legend:
CD26 [1] = biological target: T1, CD26 (human, UniProt P27487); assay: BLI
CD26 [2] = biological target: T1, CD26; assay: BLI; remark: listed apart in the source
[3] = biological target: 21G584 CD26 fragment 29-237 (human); assay: FACS
[4] = biological target: 21G583 CD26 fragment 29-300 (human); assay: FACS
[5] = biological target: 23G645 CD26 fragment 498-766 (human); assay: FACS
[6] = biological target: 21G585 CD26 fragment 29-182 (human); assay: FACS
21G585 CD26 fragment 29-182 (human), sequence (chain, as listed by the source): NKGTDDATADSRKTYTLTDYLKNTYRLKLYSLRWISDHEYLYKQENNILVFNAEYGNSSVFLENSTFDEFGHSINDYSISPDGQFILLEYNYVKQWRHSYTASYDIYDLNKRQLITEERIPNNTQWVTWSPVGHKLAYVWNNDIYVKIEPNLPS

T1 sequence (P27487 29-766): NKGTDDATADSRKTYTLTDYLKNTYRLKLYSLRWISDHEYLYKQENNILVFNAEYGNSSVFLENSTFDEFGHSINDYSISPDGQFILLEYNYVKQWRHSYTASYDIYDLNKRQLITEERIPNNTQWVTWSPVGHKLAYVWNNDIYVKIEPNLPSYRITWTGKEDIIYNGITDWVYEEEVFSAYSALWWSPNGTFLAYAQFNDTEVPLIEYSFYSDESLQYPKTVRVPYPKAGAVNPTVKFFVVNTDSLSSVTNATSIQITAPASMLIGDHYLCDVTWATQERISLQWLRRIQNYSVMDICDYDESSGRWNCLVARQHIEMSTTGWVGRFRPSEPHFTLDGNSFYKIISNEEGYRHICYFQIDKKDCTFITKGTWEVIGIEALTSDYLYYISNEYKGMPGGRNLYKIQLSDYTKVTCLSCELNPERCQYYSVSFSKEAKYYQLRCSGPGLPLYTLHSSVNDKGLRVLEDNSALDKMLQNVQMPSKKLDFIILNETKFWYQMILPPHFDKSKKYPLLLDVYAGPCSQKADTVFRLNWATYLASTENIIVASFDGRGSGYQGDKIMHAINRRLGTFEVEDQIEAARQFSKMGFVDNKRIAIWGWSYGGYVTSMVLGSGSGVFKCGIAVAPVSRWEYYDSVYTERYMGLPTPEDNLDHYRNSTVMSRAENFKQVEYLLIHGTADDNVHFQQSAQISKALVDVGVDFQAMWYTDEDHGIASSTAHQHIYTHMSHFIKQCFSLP
21G584 CD26 fragment 29-237 (human), sequence (chain, as listed by the source): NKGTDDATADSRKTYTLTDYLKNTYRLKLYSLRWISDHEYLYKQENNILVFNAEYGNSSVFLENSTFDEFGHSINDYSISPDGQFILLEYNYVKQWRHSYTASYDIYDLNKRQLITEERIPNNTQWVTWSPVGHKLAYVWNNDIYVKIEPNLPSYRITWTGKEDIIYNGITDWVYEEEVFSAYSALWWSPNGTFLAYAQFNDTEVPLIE
23G645 CD26 fragment 498-766 (human), sequence (chain, as listed by the source): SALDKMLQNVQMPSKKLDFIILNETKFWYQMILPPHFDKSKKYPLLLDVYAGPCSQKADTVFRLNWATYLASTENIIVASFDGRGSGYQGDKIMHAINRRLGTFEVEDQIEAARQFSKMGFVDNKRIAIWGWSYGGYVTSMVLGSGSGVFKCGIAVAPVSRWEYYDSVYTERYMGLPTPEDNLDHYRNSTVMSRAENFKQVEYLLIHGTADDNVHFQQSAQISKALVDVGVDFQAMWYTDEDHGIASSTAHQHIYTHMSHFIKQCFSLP
21G583 CD26 fragment 29-300 (human), sequence (chain, as listed by the source): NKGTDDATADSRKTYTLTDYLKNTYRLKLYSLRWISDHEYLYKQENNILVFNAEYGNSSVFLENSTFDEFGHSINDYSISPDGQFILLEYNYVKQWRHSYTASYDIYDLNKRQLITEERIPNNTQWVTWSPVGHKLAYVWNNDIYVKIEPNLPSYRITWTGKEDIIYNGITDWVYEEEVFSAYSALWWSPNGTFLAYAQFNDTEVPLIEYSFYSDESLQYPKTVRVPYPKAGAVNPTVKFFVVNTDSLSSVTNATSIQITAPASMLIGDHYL

| Binder | Kd (CD26 [2]) | further results |
| --- | --- | --- |
| 17G105 (CD26 arm) (antibody) DIVLTQSPASLAVSLGQRATISCRASESVEYYGTSLMQWYQQKPGQPPKLLIYTASNVESGVPVRFSGSGSGTDFSLNIHPVEEDDIAMYFCQQSRKVPYTFGGGTKLEIKGGGGSGGGGSGGGGSQVQLQQSGPELMKPGASVKISCKATGYSFSGFWIEWVKQRPGHGLEWIGEILPGSGASNYHENFKGRATITADTSANTAYMQLRSLTSEDSAVYYCARERYYGSKYFDVWGAGTTVTVSS |  | Kd (CD26 [1]): 39.3 nM |
| 19G297 (CD26 arm) (antibody, V domains shown) VH: EVQLQESGPGLVKPSGTLSLTCAVSGDSITSGYWHWIRQAPGKGLEWVGYINYSGYTYYNPSLKSRFTISRDTSKNQYYLQLNSVTAEDTAVYYCTSERNWGAFAYWGQGTLVTVSS VL: ENVLTQSPASLSASPGERVTITCRASSSVISTYLHWYQQKPGQAPKLWIYSTSNLASGVPARFSGSGSGTDYTLTISSVEPEDFATYYCQQFSGYPYTFGQGTKLEIK | 4.4 nM |  |
| 19G296 (CD26 arm) (antibody, V domains shown) VH: QVQLQESGPGLVKPSETLSLTCTVSGDSITSGYWHWIRQPPGKGLEWIGYINYSGYTYYNPSLKSRFTISRDTSKNQYYLQLNSVTAEDTAVYYCTSERNWGAFAYWGQGTLVTVSS VL: ENVLTQSPATLSASPGERATLSCRASSSVISTYLHWYQQKPGQAPKLWIYSTSNLASGVPARFSGSGSGTDYTLTISSVEPEDFAVYYCQQFSGYPYTFGQGTKLEIK | 14.8 nM |  |
| 17G29 (CD26 arm, YS110) (antibody, V domains shown) VH: EVQLVESGAGVKQPGGTLRLTCTASGFSLTTYGVHWVRQAPGKGLEWVGVIWGDGRTDYDAAFMSRVTISKDTSKSTVYLQMNSLRAEDTAVYYCMRNRHDWFDYWGQGTTVTVSS VL: DILLTQSPSSLSATPGERATITCRASQGIRNNLNWYQQKPGQAPRLLIYYSSNLQSGVPSRFSGSGSGTDFTLTISRLQPEDVAAYYCQQSIKLPFTFGSGTKVEIK | 1.18 nM |  |
| 19G292 (CD26 arm) (antibody, V domains shown) VH: QVQLLQSGAEVVKPGASVKISCKASGFNIKDTYIYWVKQPTGQGLEWIGRIEPMNGNTKYDPKFQGRFTMTANTSINTAYLQLSSLTSEDTAVYYCSRGGWLLLYVMDYWGQGTTVTVSS VL: DIVMTQSASSLPVTPGESVSISCRSDKSLLHSNGNTYLYWFLQRPGQSPQVLIYRMSNLASGVPDRFSGSGSGTEFTLTISRVEAEDVGVYYCFQQLEYPYTFGPGTKLEIK | < 0.001 nM |  |
| 17G61 (CD26 arm) (antibody) DIVMTQAAPSVSVTPGESVSISCRSDKSLLHSNGNTYLYWFLQRPGQSPQVLIYRMSNLASGVPDRFSGSGSGTGFTLRVSRVEAEDVGVYYCFQQLEYPYTFGGGTKLEIKGGGGSGGGGSGGGGSEVQLQQSGAELVKPGASVKLSCTASGFNIKDTYIYWVKQRPGQGLEWIGRIEPMNGNTKYDPKFQGKATMTANTSSNTAYLHLSSLASEDTAVYFCSRGGWLLLYVMDYWGQGTSVTVSS |  | Kd (CD26 [1]): 17.3 nM |
| 21G428-429 (antibody, V domains shown) VH: EVQLVQSGAELVKPGASVKLSCAASGFNIKDTYIYWVRQAPGQGLEWVGRIEPMNGNTKYDPKFQGRFTMTANTSKNTAYLQLSSLRSEDTAVYYCSRGGWLLLYVMDYWGQGTLVTVSS VL: DIVMTQSPSSLSVTPGERVSISCRSDKSLLHSNGNTYLYWFLQKPGQSPQVLIYRMSNLASGVPDRFSGSGSGTDFTLTISRVEAEDVGVYYCFQQLEYPYTFGQGTKLEIKR |  | binding result [3]: no binding; binding result [4]: no binding; binding result [5]: no binding; binding result [6]: no binding |
| 19G293 (CD26 arm) (antibody, V domains shown) VH: QVQLVQSGAELVKPGASVKLSCKASGFNIKDTYIYWVRQAPGQGLEWIGRIEPMNGNTKYDPKFQGRVTMTANTSINTAYLELSSLRSEDTAVYYCSRGGWLLLYVMDYWGQGTLVTVSS VL: DIVMTQSPLSLSVTPGEPASISCRSDKSLLHSNGNTYLYWFLQKPGQSPQVLIYRMSNLASGVPDRFSGSGSGTDFTLKISRVEAEDVGVYYCFQQLEYPYTFGQGTKLEIK | < 0.001 nM |  |
| 19G294 (CD26 arm) (antibody, V domains shown) VH: EVQLVQSGAELVKPGASVKLSCAASGFNIKDTYIYWVRQAPGQGLEWVGRIEPMNGNTKYDPKFQGRFTMTANTSKNTAYLQLSSLRSEDTAVYYCSRGGWLLLYVMDYWGQGTLVTVSS VL: DIVMTQSPSSLSVTPGERVSISCRSDKSLLHSNGNTYLYWFLQKPGQSPQVLIYRMSNLASGVPDRFSGSGSGTDFTLTISRVEAEDVGVYYCFQQLEYPYTFGQGTKLEIK | 0.914 nM |  |
| 21G587 (CD26 arm) (antibody, V domains shown) VH: EVQLVQSGAELVKPGASVKLSCAASGFNIKDTYIYWVRQAPGQGLEWVGRIEPMNGNTKYDPKFQGRFTMTANTSKNTAYLQLSSLRSEDTAVYYCSRGGWLLLYVMDYWGQGTLVTVSS VL: DIVMTQSPSSLSVTPGERVSISCRSDKSLLHSNGNTYLYWFLQKPGQSPQVLIYRMSNLASGVPDRFSGSGSGTDFTLTISRVEAEDVGVYYCFQQLEYPYTFGQGTKLEIK | 0.352 nM |  |
